Assay results as given in patent US20160251695.

T1: α-fructosyl-valyl-histidine
T1 chain: VH

T2: α-fructosyl-valyl-histidyl-leucyl-threonyl-proryl-glutamic acid
T2 chain: VHLTPE


Tests used:
[1] = biological target: T1, α-fructosyl-valyl-histidine
[2] = biological target: T2, α-fructosyl-valyl-histidyl-leucyl-threon …

hemoglobin A1c, P68871, sequence (P68871 2-147, chain 1 of 2): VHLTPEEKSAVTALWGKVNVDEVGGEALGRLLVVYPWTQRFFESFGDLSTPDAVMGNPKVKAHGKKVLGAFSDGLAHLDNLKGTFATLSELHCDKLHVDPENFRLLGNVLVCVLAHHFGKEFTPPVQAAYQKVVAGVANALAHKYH
hemoglobin A1c, P68871, sequence (chain, as listed by the source, chain 2 of 2): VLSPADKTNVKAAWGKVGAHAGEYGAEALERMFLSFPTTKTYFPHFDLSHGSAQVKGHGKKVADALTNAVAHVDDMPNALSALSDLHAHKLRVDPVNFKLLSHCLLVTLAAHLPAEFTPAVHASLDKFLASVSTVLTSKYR

| Protein | ΔA at 751 nm (hydrogen peroxide generated upon oxidation of the HbA1c β-chain amino terminus) against HbA1c concentration; heat-treated sample (hemoglobin A1c, P68871) | Specific activity (U/mg), 1 mM αFVH [1] [U/mg] | αFVH oxidation activity [1] | Specific activity (U/mg), 1 mM αF6P [2] [U/mg] | αF6P oxidation activity ([2]; scale: relative value) | ΔA at 751 nm against HbA1c concentration; acid-treated sample (Reagent D1 or D2, Reagent F1) (hemoglobin A1c, P68871) | specific activity on αF6P, fold over FAOAo2 (Comparative Example 2) [2] | αF6P oxidation activity ratio (relative value (CFP-T7-H28 = 100)) [2] | ΔA at 751 nm against HbA1c concentration; acid-treated sample (Reagent D1, Reagent F2) (hemoglobin A1c, P68871) |
| --- | --- | --- | --- | --- | --- | --- | --- | --- | --- |
| CFP-T7 (protein) MTSNRADTRVIVVGGGGTIGSSTALHLVRSGYAPANITVLDTFEIPSAQSAGHDLNKIMGIRLRNKVDLQMSLEARQMWKEDELFQPFFHNTGRMDCEHTPEGIEDLKKQYQALHDAGAGLEKTHAWLDNEDEILSKMPLLQRDQIQGWKAIWSQDGGWLAAAKAINAIGQFLKERGVKFGFGGAGSFKQPLFDDEGTTCIGVETADGTKYYADKVVLAAGAWSPTLVDLEDQCCSKAWVYAHIQLTPEEAAEYKGVPVVYNGEFGFFFEPDEFGVIKVCDEFPGFSRFKEHQPYGAPSPKRISVPRSHAKHPTDTYPDASEVSIKKAIATFLPRFQDKELFNRALCWCTDTADAALLMCEHPKWKNFILATGDSGHSFKILPNVGKYVVELIEGRLPEEMAYQWRWRPGGDALKSRRAAPPKDLADMPGWKHDPKL | When Reagent C2 was used, however, no correlation was observed between the HbA1c concentration and ΔA | 16.5 | CFP-T7 exhibited αFV oxidation activity and αFVH oxidation activity | 0 | 0 |  |  |  |  |
| CFP-T7-H35 (protein) MTSNRADTRVIVVGGGGTIGSSTALHLVRSGYAPANITVLDTFEIPSAQSAGHDLNKIMGIDHRNKVDLQMSLEARQMWKEDELFQPFFHNTGRMDCEHTPKGIEKLKKLYQKLHDAGAGLEKTHAWLDNEDEILSKMPLLQRDQIQGWKAIWSQDGGWLAAAKAINAIGQFLKERGVKFGFGGAGSFKQPLFDDEGTTCIGVETADGTKYYADKVVLAAGAWSPTLVDLEDQCCSKAWVYAHIQLTPEEAAEYKGVPVVYNGEFGFFFEPDEFGVIKVCDEFPGFSRFKEHQPYGAPSPKRISVPRSHAKHPTDTYPDASEVSIKKAIATFLPRFQDKELFNRALCWCTDTADSALLMCEHPKWKNFILATGDSGHSFKILPNVGKYVVELIEGRLPEEMAYQWRWRPGGDALKSRRAAPPKDLADMPGWKHDPKL | When Reagent C1 was used, a good correlation was established between the HbA1c concentration and ΔA | 1.9 |  | 4.27 |  | In both cases where the sample was diluted with either Reagent D1 or Reagent D2, a good correlation was established between the HbA1c concentration and ΔA | 1.940 times (Amadoriase 25/Comparative Example 2) | 206 |  |
| EFP-T5-62D/63H/106K/110L/113K/355S (protein) MAHSRASTKVVVVGGGGTIGSSTALHLIRSGYTPSNITVLDVYKTPSLQSAGHDLNKIMGIDHRNGPDLQLSLESLDMWQNDELFKPFFHQVGMIDCSSSKEGIEKLRRLYQKLLDAGIGLEKTNVWLESEDEILAKAPNFTREQVKGWKGLFCTDGGWLAAAKAINAIGIFLQDKGVKFGFGDAGTFQQPLFAADGKTCIGLETTDGTKYFADKVVLAAGAWSPTLVDLEDQCVSKAWVFAHIQLTPKEADAYKNVPVVYDGEYGFFFEPDEYGVIKVCDEFPGFSRFKLHQPYGAASPKMISVPRSHAKHPTDTYPDASEVTIRKAIARFLPEFKDKELFNRTMCWCTDTADSNLLICEHPKWKNFILATGDSGHSFKLLPNIGKYVVELLEGSLSQEMAGAWRWRPGGDALRSRRGAPAKDLAEMPGWKHDAHL |  |  |  | 1.12 |  |  |  |  | Amadoriase 28 from EFP-T5 exhibiting high specific activity on αF6P was also found to act directly on HbA1c (FIG. 6-3) |
